In the supplement of paper PMC10065799, “High-throughput profiling of sequence recognition by tyrosine kinases and SH2 domains using bacterial peptide display” (eLife, 2023):

What was measured:
[1] = biological target: Jak2 (UniProt O60674); experiment: phosphorylation enrichment, bacterial display (enrichment ratio); higher = better substrate or ligand; peptides without Tyr show the background
[2] = test system: c-Src; experiment: as above
[3] = test system: AncSZ; experiment: as above
[4] = biological target: Fyn (UniProt P06241); experiment: as above
Chain of Fyn (P06241 whole entry, looked up): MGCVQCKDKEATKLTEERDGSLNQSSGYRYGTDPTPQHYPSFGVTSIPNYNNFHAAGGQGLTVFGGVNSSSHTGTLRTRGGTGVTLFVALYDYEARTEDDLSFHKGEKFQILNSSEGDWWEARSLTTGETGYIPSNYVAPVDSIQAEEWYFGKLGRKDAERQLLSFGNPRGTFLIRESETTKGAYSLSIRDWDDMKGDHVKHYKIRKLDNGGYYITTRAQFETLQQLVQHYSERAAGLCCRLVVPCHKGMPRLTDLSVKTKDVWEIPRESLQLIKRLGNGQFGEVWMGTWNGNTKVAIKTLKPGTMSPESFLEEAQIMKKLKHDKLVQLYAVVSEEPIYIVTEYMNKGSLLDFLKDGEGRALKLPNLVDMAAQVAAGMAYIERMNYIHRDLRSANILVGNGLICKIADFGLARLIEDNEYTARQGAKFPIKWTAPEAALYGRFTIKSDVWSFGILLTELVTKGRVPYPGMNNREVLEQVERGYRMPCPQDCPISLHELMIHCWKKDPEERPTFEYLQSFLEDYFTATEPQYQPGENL

[5] = test system: Fer (mouse); experiment: as above
[6] = biological target: FGFR1 (UniProt P11362); experiment: as above
Chain of FGFR1 (P11362 whole entry, looked up): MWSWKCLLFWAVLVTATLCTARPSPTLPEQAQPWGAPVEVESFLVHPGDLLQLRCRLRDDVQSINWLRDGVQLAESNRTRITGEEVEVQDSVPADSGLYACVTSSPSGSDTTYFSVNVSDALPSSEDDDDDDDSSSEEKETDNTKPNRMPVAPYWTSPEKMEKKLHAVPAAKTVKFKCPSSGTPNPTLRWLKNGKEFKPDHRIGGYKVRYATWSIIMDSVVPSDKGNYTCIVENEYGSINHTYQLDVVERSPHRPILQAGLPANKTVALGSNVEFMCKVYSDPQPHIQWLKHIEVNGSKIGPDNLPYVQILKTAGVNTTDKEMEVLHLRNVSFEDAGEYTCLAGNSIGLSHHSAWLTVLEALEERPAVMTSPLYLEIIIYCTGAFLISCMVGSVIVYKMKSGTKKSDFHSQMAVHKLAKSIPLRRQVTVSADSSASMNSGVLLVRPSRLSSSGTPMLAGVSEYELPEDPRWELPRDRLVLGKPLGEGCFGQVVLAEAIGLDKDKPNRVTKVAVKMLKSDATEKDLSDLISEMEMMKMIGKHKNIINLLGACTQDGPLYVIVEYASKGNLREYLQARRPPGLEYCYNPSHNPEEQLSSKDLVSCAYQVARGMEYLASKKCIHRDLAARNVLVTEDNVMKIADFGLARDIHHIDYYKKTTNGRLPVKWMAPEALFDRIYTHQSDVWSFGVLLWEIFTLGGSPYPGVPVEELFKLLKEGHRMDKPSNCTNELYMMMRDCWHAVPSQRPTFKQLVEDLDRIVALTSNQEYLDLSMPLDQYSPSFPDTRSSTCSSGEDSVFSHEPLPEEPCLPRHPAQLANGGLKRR

[7] = biological target: EPHB2 (UniProt P29323); experiment: as above
[8] = biological target: MERTK (UniProt Q12866); experiment: as above
[9] = test system: c-Abl (mouse); experiment: as above
[10] = biological target: EPHB1 (UniProt P54762); experiment: as above
Chain of EPHB1 (P54762 whole entry, looked up): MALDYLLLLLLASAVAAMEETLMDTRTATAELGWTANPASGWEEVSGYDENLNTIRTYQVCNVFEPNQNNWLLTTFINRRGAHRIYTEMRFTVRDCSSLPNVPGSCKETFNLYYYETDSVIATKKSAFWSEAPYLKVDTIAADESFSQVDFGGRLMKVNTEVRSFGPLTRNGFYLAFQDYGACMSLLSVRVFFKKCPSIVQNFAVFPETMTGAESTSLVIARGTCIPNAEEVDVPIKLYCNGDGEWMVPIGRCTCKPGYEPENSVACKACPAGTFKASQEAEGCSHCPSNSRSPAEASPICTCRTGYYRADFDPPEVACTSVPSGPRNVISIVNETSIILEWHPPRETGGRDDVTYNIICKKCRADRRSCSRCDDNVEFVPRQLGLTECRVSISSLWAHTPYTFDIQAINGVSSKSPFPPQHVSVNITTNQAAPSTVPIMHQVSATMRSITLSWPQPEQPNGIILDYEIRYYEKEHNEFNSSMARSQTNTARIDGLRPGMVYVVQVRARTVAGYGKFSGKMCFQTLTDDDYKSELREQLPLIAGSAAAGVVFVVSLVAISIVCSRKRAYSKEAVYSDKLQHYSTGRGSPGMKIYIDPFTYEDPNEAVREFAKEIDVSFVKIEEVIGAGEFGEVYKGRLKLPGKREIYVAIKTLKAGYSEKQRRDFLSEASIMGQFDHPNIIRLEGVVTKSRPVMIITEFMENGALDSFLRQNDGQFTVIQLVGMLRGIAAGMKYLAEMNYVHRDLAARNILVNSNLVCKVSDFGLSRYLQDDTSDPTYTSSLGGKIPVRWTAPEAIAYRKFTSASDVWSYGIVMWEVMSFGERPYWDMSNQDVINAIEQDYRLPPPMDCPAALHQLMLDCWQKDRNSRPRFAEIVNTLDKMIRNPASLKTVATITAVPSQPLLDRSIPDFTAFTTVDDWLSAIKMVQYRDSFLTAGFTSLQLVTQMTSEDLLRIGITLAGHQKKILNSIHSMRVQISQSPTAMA

[11] = biological target: Hck (UniProt P08631); experiment: as above
Chain of Hck (P08631 whole entry, looked up): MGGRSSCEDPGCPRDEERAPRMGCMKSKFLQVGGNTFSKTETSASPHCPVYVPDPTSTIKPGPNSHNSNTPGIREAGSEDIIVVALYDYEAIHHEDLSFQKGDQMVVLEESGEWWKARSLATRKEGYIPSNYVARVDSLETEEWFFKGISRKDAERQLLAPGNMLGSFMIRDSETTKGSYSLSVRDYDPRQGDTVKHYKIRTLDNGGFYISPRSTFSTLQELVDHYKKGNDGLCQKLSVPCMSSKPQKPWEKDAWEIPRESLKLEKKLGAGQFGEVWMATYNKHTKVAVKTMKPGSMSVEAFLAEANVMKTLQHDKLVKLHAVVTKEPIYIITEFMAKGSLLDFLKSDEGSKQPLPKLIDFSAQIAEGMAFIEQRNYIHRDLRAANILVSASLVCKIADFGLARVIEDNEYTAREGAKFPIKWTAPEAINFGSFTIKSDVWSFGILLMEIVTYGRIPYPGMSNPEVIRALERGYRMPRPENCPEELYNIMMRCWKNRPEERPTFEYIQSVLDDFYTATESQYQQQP

[12] = biological target: FGFR3 (UniProt P22607); experiment: as above
Chain of FGFR3 (P22607 whole entry, looked up): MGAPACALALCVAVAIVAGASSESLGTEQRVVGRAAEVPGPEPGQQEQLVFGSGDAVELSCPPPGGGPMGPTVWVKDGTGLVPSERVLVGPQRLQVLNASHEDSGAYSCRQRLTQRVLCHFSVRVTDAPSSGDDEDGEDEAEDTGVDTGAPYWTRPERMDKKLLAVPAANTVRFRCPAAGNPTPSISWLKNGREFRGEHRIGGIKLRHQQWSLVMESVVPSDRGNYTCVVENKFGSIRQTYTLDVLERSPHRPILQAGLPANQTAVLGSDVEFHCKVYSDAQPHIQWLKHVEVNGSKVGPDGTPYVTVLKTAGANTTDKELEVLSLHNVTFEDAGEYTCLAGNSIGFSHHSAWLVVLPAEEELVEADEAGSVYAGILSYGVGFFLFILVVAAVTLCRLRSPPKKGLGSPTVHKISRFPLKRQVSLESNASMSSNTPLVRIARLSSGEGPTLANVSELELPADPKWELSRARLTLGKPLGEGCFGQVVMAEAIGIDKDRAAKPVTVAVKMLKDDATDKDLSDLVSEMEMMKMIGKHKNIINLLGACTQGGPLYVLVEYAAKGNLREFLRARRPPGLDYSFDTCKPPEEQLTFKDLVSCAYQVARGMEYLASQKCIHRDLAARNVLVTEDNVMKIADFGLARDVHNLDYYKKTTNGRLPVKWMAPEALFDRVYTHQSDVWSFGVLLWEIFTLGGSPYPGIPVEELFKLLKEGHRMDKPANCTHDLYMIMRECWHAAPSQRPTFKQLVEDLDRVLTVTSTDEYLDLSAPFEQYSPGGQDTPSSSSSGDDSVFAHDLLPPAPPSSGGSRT

[13] = biological target: Fes (UniProt P07332); experiment: as above
Chain of Fes (P07332 whole entry, looked up): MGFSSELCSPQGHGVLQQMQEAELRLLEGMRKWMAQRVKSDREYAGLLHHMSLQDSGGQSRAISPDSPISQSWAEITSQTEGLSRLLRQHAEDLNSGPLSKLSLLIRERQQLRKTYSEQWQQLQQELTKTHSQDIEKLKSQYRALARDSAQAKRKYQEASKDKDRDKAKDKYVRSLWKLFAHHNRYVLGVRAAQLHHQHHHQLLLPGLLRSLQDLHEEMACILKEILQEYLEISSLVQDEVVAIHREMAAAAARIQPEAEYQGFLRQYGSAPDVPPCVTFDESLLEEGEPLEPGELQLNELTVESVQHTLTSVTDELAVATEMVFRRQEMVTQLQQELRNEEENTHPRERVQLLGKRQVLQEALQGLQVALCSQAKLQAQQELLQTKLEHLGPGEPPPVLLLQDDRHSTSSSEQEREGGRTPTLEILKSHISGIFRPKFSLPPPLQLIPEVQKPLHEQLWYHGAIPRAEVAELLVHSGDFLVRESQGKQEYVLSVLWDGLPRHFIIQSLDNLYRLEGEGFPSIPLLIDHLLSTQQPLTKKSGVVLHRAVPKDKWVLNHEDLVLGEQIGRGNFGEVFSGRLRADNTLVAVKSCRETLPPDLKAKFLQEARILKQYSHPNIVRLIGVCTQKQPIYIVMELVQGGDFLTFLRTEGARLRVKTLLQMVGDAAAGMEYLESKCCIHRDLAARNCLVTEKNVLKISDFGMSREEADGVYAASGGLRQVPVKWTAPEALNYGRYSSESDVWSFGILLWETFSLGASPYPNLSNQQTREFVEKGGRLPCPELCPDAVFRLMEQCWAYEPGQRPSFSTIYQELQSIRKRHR

[14] = biological target: SHP2-C SH2; experiment: SH2 binding enrichment of the phosphorylated peptide, bacterial display (enrichment ratio); higher = better substrate or ligand; peptides without Tyr show the background
[15] = biological target: Grb2 SH2 (UniProt P62993); experiment: as above
Chain of Grb2 SH2 (P62993 whole entry, looked up): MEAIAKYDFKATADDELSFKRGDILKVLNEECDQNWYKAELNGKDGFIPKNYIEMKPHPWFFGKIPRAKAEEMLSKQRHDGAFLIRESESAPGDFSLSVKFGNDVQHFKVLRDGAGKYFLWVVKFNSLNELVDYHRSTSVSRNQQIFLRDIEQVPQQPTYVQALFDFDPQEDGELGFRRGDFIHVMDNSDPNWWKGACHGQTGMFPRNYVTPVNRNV

[16] = biological target: c-Src SH2; experiment: as above
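For SH2 binding enrichment of the phosphorylated peptide, bacterial display in this document: peptide library displayed on the E. coli surface as eCPX fusions, selected cells deep-sequenced, score is each peptide's frequency after selection divided by its frequency in the input.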
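For phosphorylation enrichment, bacterial display in this document: 11-residue human phosphosite peptides and single-mutation variants displayed on the E. coli surface, counted by deep sequencing, each peptide's frequency after selection divided by its frequency in the unselected input library; frequency after pTyr selection over input frequency; kinase dosed for 20-30% of maximal phosphorylation in three min.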

Sequence | phosphorylation enrichment [1] | phosphorylation enrichment [2] | phosphorylation enrichment [3] | phosphorylation enrichment [4] | phosphorylation enrichment [5] | phosphorylation enrichment [6] | phosphorylation enrichment [7] | phosphorylation enrichment [8] | phosphorylation enrichment [9] | phosphorylation enrichment [10] | phosphorylation enrichment [11] | phosphorylation enrichment [12] | phosphorylation enrichment [13] | SH2 binding enrichment [14] | SH2 binding enrichment [15] | SH2 binding enrichment [16]
ISIFHYAKGQP [MPZ_Y82] | 0.855 | 0.35 | 1.04 | 0.463 | 0.434 | 0.456 | 0.481 | 0.379 | 0.644 | 0.69 | 0.466 | 0.68 | 1.03 | 0.739 | 0.874 | 0.7
ISITPYPAILH [IFT80_Y588] | 1.2 | 0.414 | 1.2 | 0.409 | 0.37 | 0.433 | 0.484 | 0.36 | 0.865 | 0.578 | 0.465 | 0.676 | 1.24 | 0.547 | 0.616 | 0.385
ISTAGYSFPEL [EDAR_Y406_I408F] | 1.03 | 0.487 | 0.886 | 0.437 | 0.425 | 0.457 | 0.523 | 0.698 | 0.737 | 0.526 | 0.461 | 0.532 | 0.878 | 0.957 | 0.854 | 6.7
ITNLLYHVVSW [GBA_Y412_G416S] | 3.17 | 3.8 | 1.46 | 3.23 | 5.89 | 9.38 | 5.99 | 7.13 | 3.22 | 8.05 | 4.84 | 7.83 | 1.35 | 1.15 | 1.25 | 0.944
ITVCDYTNPCT [MYD88_Y276] | 1.11 | 1.26 | 1.66 | 0.401 | 0.395 | 0.521 | 0.691 | 0.426 | 0.651 | 0.583 | 0.415 | 0.719 | 1.02 | 0.603 | 0.968 | 0.701
IVAREYFSEAD [CAMK2A_Y106_YF] | 0.965 | 0.491 | 1.09 | 0.538 | 0.563 | 0.508 | 0.657 | 0.472 | 0.728 | 0.6 | 0.5 | 0.752 | 1.16 | 0.867 | 0.9 | 0.566
IVFVICDEVVK [SLC25A1_Y297_Y297C] | 1.01 | 0.393 | 1.15 | 0.442 | 0.498 | 0.484 | 0.555 | 0.333 | 0.55 | 0.652 | 0.501 | 0.833 | 1.25 | 1.03 | 1.12 | 0.734
IVTLKYPIEHG [ACTB_Y69_L65V] | 0.74 | 0.422 | 0.698 | 0.483 | 0.489 | 0.523 | 0.412 | 0.481 | 0.871 | 0.434 | 0.466 | 0.702 | 0.76 | 0.807 | 0.77 | 0.45
KACKHYLTTRT [ZBTB5_Y118] | 0.978 | 0.659 | 0.712 | 0.505 | 0.534 | 0.448 | 0.507 | 0.563 | 0.859 | 0.46 | 0.501 | 0.64 | 0.964 | 1.4 | 1.7 | 1.43
KAESWYQTKYE [KRT75_Y342_E337K] | 0.471 | 0.457 | 0.763 | 0.485 | 0.57 | 0.367 | 0.524 | 0.433 | 0.396 | 0.399 | 0.459 | 0.491 | 0.698 | 0.648 | 0.805 | 0.479
KCCCIYEKPRA [PPP1R11_Y64] | 1.34 | 3.6 | 2.23 | 1.95 | 8.2 | 0.523 | 1.06 | 1.65 | 7.54 | 1.07 | 2.67 | 0.814 | 1.46 | 0.705 | 0.879 | 0.478
KDHPDYKFQRR [SOX10_Y171_P175R_YF] | 0.615 | 0.446 | 0.696 | 0.321 | 0.612 | 0.338 | 0.387 | 0.389 | 0.667 | 0.338 | 0.382 | 0.423 | 0.631 | 0.701 | 1 | 0.736
KEAALYPHLPP [SQSTM1_Y383] | 1.04 | 0.48 | 0.67 | 0.391 | 0.42 | 0.459 | 0.373 | 0.391 | 0.669 | 0.414 | 0.362 | 0.649 | 0.796 | 0.708 | 0.763 | 0.474
KFACSYTPVKA [FLNB_Y708_T703K_YF] | 0.747 | 0.459 | 0.811 | 0.472 | 0.462 | 0.497 | 0.502 | 0.481 | 0.577 | 0.521 | 0.509 | 0.579 | 0.895 | 1.99 | 0.862 | 0.978
KFLENYFDLKK [MMP3_Y41_YF] | 1.26 | 0.499 | 1.06 | 0.448 | 0.467 | 2.51 | 0.751 | 0.446 | 0.816 | 1.94 | 0.543 | 1.75 | 1.27 | 0.709 | 0.886 | 0.604
KFLENYLNCLL [PLD2_Y169_R172C_YF] | 1.23 | 0.572 | 1.23 | 0.497 | 0.532 | 0.759 | 0.676 | 0.461 | 0.91 | 0.748 | 0.474 | 0.859 | 1.17 | 1.61 | 1.45 | 1.25
KGEDFYCVTCP [FHL1_Y149_H154P] | 1.33 | 3.64 | 1.47 | 4.22 | 2.65 | 1.15 | 0.589 | 6.08 | 0.646 | 0.586 | 2.96 | 1.04 | 1.01 | 0.644 | 1.01 | 1.04
